Source: the DeepSol protein solubility set

Test: soluble on expression in E. coli; label from the status in PepcDB or PDB records
With “MAHHHHHHMGDKVEYGTSTVKSLGDTCRLVRALQGSTDPRLVSINSLLEGVVKSAQSLVKGTDSQKRFNMEFAEFCGVALMGLPDLEDAVDDLRVQENCANAAVNDQDDFDGISPAIFMREIIGYVVSRNTNVGAQYLEHIGRSAMAKFAGQESSEVTPKRLKSGMNDERHVQSVARKKQRTRPVAGKMGRAPTDDKSGVAATGRVFGVDGDEPKQRYKQSMPKGPPMLSRWVKPWTLLNQRVQGIILEHASNENTRRPPVCNYPPGKRSNITPFDICTAPSGPEMLNLWHARESMTSSSVGHCDPVGVAFDETALDHDSKGSEPSFFPSGDKKVCAFVSSELMANLVRYGVSSLEAPFKGAK” the “soluble on expression in E. coli” value was “not soluble”.
With “MDVIREYLMFNELSALSSSPESVRSRFSSIYGTNPDGIALNNETYFNAVKPPITAQYGYYCYKNVGTVQYVNRPTDINPNVILAQDTLTNNTNEPFTTTITITGSFTNTSTVTSSTTTGFKFTSKLSIKKVFEIGGEVSFSTTIGTSETTTETITVSKSVTVTVPAQSRRTIQLTAKIAKESADFSAPITVDGYFGANFPKRVGPGGHYFWFNPARDVLNTTSGTLRGTVTNVSSFDFQTIVQPARSLLDEQ” the “soluble on expression in E. coli” value was “soluble”.
With “MGVLTTFISQKALVGGYDNTIEPGVVILSGATITCNVSIGQGTFINKSTVISHDVRIGRYCEVSPGAKVLGRAIIGDRTEIGANAVILPDVIVGADCKIGAGAVVTRNIDSHTTVAGVPARSITKSSNNAFKLKSKIRNLLYHIRIADFRKLREYNHYVFGLEHHHHHH” the “soluble on expression in E. coli” value was “not soluble”.
In the case of “MENGEVLISGYRIPYSYAAMPGVKKNLVIIDIKGDEIWQKLRAADRINEWKINVYIPHFIAGSKEVVDSEPSSNLDSAGEFYYNFVQAMRLKNVMLMGEGINADVALKCSMIHPERFSNVIAIDGTGYDGYAEELYRVQKPVLLVWGGARGYRETMIGQSYHDLIAGSVFKVFDNSKRPLEDSTDRFFSMLKNYIAVD”, the “soluble on expression in E. coli” value is reported as “not soluble”.
With “YGKQRKASVIGAINTVSMNELKMPVAKLSSGLAGQLAGIVVMQRSGEPGAGADFWIRGINTFGAGNKPLVLVDGVERSMDLVDVEDIASFSILKDATATALYGVRGANGIVLITTKRGTES” the “soluble on expression in E. coli” value was “not soluble”.
For “MGHHHHHHSHELEALSQDPRRYEEWKWFRCPTLLEVLEQFPSVALPAPLLLTQLPLLQPRYYSVSSAPSTHPGEIHLTVAVLAYRTQDGLGPLHYGVCSTWLSQLKPGDPVPCFIRGAPSFRLPPDPSLPCILVGPGTGIAPFRGFWQERLHDIESKGLQPTPMTLVFGCRCSQLDHLYRDEVQNAQQRGVFGRVLTAFSREPDNPKTYVQDILRTELAAEVHRVLCLERGHMFVCGDVTMATNVLQTVQRILATEGDMELDEAGDVIGVLRDQQRYHEDIFGLTLRTQEVTSRI”, the “soluble on expression in E. coli” value was “not soluble”.
In the case of “MDPRQFEHTVVADNDIHSIVMSYLLHNCFNETADSLASSTGVKQPAIDRDNMERRKQIIHFILERKALKAFELTEQLAQDLLEKNKDLQFDLLCLHFVELICAGNCTEALKFGKTRLAPFGKVKKYVEKLEDVMALLAYEDPEKSPMFHLLSSEYRQQVADNLNRTILEHTNHPSYTPMERIIQQVTVVRQYLTEENGKDAFPPFSLKDSLKG”, the “soluble on expression in E. coli” value is reported as “soluble”.
In the case of “MSLNIIERQKLTQSLKLSQMMKLSINILKMSVMDLNKFIEKEFSEDSGISVELNYSKKENFNGGKEAEMNYPTDEKNFFQILEEQLSYFKINKKIKEICIFIINNLDKKGYLELSKIEIKDILEVSNKELEEAFDIIHNLEPYGIGAYSLEECLKIQLKAKKIIEEKLSLFIDNYLYLLADKKYDLIKEKLNINDNILFSYIDIIKSLNPIPSRGYSVGKVRKIIPDVLVEIKKNEIFYEINRASIPQINVKDKIEDEGHHHHHH”, the “soluble on expression in E. coli” value is reported as “not soluble”.
For “MGRVYYINSHGTLSRHENTLRFENAEVKKDIPVEDVEEIFVFAELSLNTKLLNFLASKGIPLHFFNYYGYYTGTFYPRESSVSGHLLIKQVEHYLDAQKRLYLAKSFVIGSILNLEYVYKISADTYLNKVKETNSIPELMSVEAEFRKLCYKKLEEVTGWELEKRTKRPPQNPLNALISFGNSLTYAKVLGEIYKTQLNPTVSYLHEPSTKRFSLSLDVAEVFKPIFVDNLIIRLIQENKIDKTHFSTELNMTFLNEIGRKVFLKAFNELLETTIFYPKLNRKVSHRTLIKLELYKLIKHLLEEEVYLPLNYGGLK”, the “soluble on expression in E. coli” value was “soluble”.
In the case of “SPSAQELKEQGNRLFVGRKYPEAAACYGRAITRNPLVAVYYTNRALCYLKMQQPEQALADCRRALELDGQSVKAHFFLGQCQLEMESYDEAIANLQRAYSLAKEQRLNFGDDIPSALRIAKKKRWNSIEERRIHQESELHSYLTRLIAAERERELEECQRNHEGHEDDGHIRAQQACIEAKHDKYMADMDELFSQVDEKRKKRDIPDYLCGKISFELMREPCITPSGITYDRKDIEEHLQRVGHFNPVTRSPLTQEQLIPNLAMKEVIDAFISENGWVEDY”, the “soluble on expression in E. coli” value is reported as “soluble”.
For “GSFTMPGLVDSNPAPPESQEKKPLKPCCACPETKKARDACIIEKGEEHCGHLIEAHKECMRALGFKI”, the “soluble on expression in E. coli” value was “soluble”.
With “LCPDAVAGIAVAAPHIYVEDITVANIAVALRAYRETTLRDRLARYHDDVDSTFASWTDTWLDPAFRQWNIEAYLPAITCPMLAMQGVDDEYGTLEQIRGIRRLAPQTRLLEIQDCGHSPHKDQPELVTRALAGFV” the “soluble on expression in E. coli” value was “not soluble”.
In the case of “MKIGIVTGIPGVGKSTVLAKVKEILDNQGINNKIINYGDFMLATALKLGYAKDRDEMRKLSVEKQKKLQIDAAKGIAEEARAGGEGYLFIDTHAVIRTPSGYLPGLPSYVITEINPSVIFLLEADPKIILSRQKRDTTRNRNDYSDESVILETINFARYAATASAVLAGSTVKVIVNVEGDPSIAANEIIRSMK”, the “soluble on expression in E. coli” value is reported as “soluble”.
For “MGSDKIHHHHHHMCMYSATFTLEAITPVFMRGANQSKAEIRAASIKGLMRWWFRALSGSYFGNDVEGLRRVEEYVFGSTKRESRVVVEVVKEHVEERFCPLPMVWKKKKGVTTRVSQRAIAPGSKFTLLLTSDDEEVLKLACYSLIGLVYFGGIGFRCSRGAGSLKISSLKSDVQLIDLPKNKNQLGQMVNDLTVEIAKILKKTFLCDHENKNCTSYSSFWCFYLFLWGEKAELEEVYYRSNNLENERLTLLDLFEKEFKNKNNHLSNYGYRDFVFGLPRGTKKDRRASPIKVGITELSEKYHVRVSVFKTKIFKPGMNVKWDNIFVFLENIGAERIYPER”, the “soluble on expression in E. coli” value was “not soluble”.
For “MGSSHHHHHHSSGLVPRGSHMALGSGVVPFENLQIEEGIITDAEVARFDNIRQGLDFGYGPDPLAFVRWHYDKRKNRIYAIDELVDHKVSLKRTADFVRKNKYESARIIADSSEPRSIDALKLEHGINRIEGAKKGPDSVEHGERWLDELDAIVIDPLRTPNIAREFENIDYQTDKNGDPIPRLEDKDNHTIDATRYAFERDMKKGGVSLWG”, the “soluble on expression in E. coli” value was “soluble”.
With “MTGALAMMPSTSSPYPLLAPPTCSSRLPPLRCFVGLRWSAPRIQVREYPDAVAGIAKGAGGRGGRFRAPASSISQPCSRTIIITNEHVQNADFPPNYSKREKKPFPIPVLELRRRAKERAKKAEGKPKRSLPPPKNGMLIKRLIPVAYKVYNARILLINNLKRLMKVIPVKGCKHCSEIHVGSVGHPFRTCKGMSSDKRRGQHDWGGTLVEAVFVPVEAYHLEDRLGKRIPHDQRFAVPRIPALVELCIQAGVNLPEYPTKRRRKPIIKIGKNEFVDANEDDLPDPEPYKLEHPILEELNDNEIIAPASPEEIVALAEETLEAWEVVRDGALKLMKGYAVRVCGYCPEVHIGASGHKARNCGAFKHQQRNGQHGWQAAVLDDLIPPRYVWHLPESGEDLQRDLKSFYGQAPAIVEICVQAGAKVPEKYKATMRLDIGIPTSLREAEMVV” the “soluble on expression in E. coli” value was “not soluble”.
For “RMEIVKIPVVVHVVWNEEEENISDAQIQSQIDILNKDFRKLNSDVSQVPSVWSNLIADLGIEFFLATKDPNGNQTTGITRTQTSVTFFTTSDEVKFASSGGEDAWPADRYLNIWVCHVLKSEIGQDILGYAQFPGGPAETDGVVIVDAAFGTTGTALPPFDKGRTATHEIGHWLNLYHIWGDELRFEDPCSRSDEVDDTPNQADPNFGCPSYPHVSCSNGPNGDMFMNYLDYVDDKCMVMFTQGQATRVNACLDGPRSSFLA”, the “soluble on expression in E. coli” value was “soluble”.
For “MGKYFGTDGVRGVANSELTPELAFKVGRFGGYVLTKDKQRPKVLIGRDTRISGHMLEGALVAGLLSIGAEVMRLGVISTPGVSYLTKAMDAEAGVMISASHNPVQDNGIKFFGGDGFKLSDEQEAEIERLMDEPEDKLPRPVGADLGLVNDYFEGGQKYLQFLKQTADEDFTGIHVALDCANGATSSLATHLFADLDADVSTMGTSPNGLNINDGVGSTHPEALSAFVKEKNADLGLAFDGDGDRLIAVDEKGNIVDGDQIMYICSKHLKSEGRLKDDTVVSTVMSNLGFYKALEKEGIKSVQTAVGDRYVVEAMKKDGYNVGGEQSGHLIFLDYNTTGDGLLSAIMLMNTLKATGKPLSELAAEMQKFPQLLVNVRVTDKYKVEENEKVKAVISEVEKEMNGDGRILVRPSGTEPLVRVMAEAKTKELCDEYVNRIVEVVRSEMGLE”, the “soluble on expression in E. coli” value was “not soluble”.
In the case of “MAHHHHHHMNGTRRFSAAPVNFDRFIALAHSYSRSLSPDRELDQMLRPFQGRAAASTSTATRESTASRVATPQRRHQQMRNGELIDKGSVSTEAEVGKPYWGTTESVAMTRSTTASNTVFSTRAATSTSRTVSGGAAETTSAVSTRSSYLVHSSCPVGEETQELGSGSYSADEVDPLLQAAMQLGSPLYDPVKRQFVCWQLHALEKRPRAAYGDVEGVSCDFCGHTDWLEGVPERATSSPSASATVANADEGKMDTHAPSAAASFTAHARFFYNCSACQVDVCQACLEEVRSDERLHVPCFQCQRCGGYETRQNAPLHRCAEVTRISDDEGSTGVQALLTSPRSNVDASQALPAAPATSSPKYRGVPVGRPVRLGLCRRFQQAVEAVAAPDTEIAAHAGKIANSTPHRKRKRASPEAALVPKQRSGKTTNDTAEVFRVSDVSDKSCRKVRRASASALPKPAPPKQEADDADGDASRALVEAALLPFARYEVHLTPRTAEEVGEVGRIAREQHLVCSPLPSLAKTCVFYFTTRLAAETCVDRATAASLDAILKQSVTPVCRT”, the “soluble on expression in E. coli” value is reported as “not soluble”.
With “MAHHHHHHMLFVDLLNGVNVNYKRKVPICKRPTRSAEYLSNQPLHANRNVEQTSSKNGEASITNHEDEKDENILQQYIYTLSHLTIFDVDRDKSTPLNIALLLKACLASHNYIKNVEIFTSNVKNKEICSFIYERRNDFDAFFKLHVMKYIDFFGNPQIVETLKSSVDNKEMYQRELEIFNQIDGETKLRKDLLEDILFECTRLNKIIQYSLAVNNFNLFSPTVLLKLFTYFKHYGVYYSIFLNNIKKVKYYYQTKDIREEDKRKIEKIVDHYLLTLDRFNHMYEAGHVTL” the “soluble on expression in E. coli” value was “not soluble”.
For “MLSARYLHLHEALGLGPMWLKQAAAVLPPKNTPAPSAQARPQTVRAAPIRPSQPHNGQARLETMKALETAAVPTRKPAPETETPLPGLSDGIAPVPAASGITKLAVVSLCPPIEDAVYGQLFHGKAGILLDNILKAVGLDAAYVHKTCWVKTAAVGNPMPSEQAVANALGQIARELDGCRAPAVLFLGQAFVQPERQTMIETLCGSRPFFIIDHPARLLRQPELKARAWQVLKQLKRALRQGGGS”, the “soluble on expression in E. coli” value was “not soluble”.
For “MVGQREPAPVEEVKPAPEQPAEPQQPVPTVPSVPTIPQQPGPIEHEDQTAPPAPHIRHYDWNGAMQPMVSKMLGADGVTAGSVLLVDSVNNRTNGSLNAAEATETLRNALANNGKFTLVSAQQLSMAKQQLGLSPQDSLGTRSKAIGIARNVGAHYVLYSSASGNVNAPTLQMQLMLVQTGEIIWSGKGAVSQQLEHHHHHH”, the “soluble on expression in E. coli” value was “soluble”.
